# B1: HDV Ribozyme (parent)
# chain: GGCCGGCAUGGUCCCAGCCUCCUCGCUGGCGCCGGCUGGGCAACAUUCCGAGGGGACCGUCCCCUCGGUAAUGGCGAAUGGGACCCA
# Variants of: B1
# Assay: self-cleavage, relative activity (ratio to wild type); higher = more cleavage; co-transcriptional
row,Variant,self-cleavage
1,C33U C84G,0.628
2,A45U G55A,0.594
3,C24G A78C,0.0241
4,C24G U47A,0.106
5,A77C G81A,0.173
6,C14A C63U,0.731
7,C58G U60A,1.06
8,G11U G59U,0.41
9,U23G A51G,0.8
10,A42C A51C,0.0594
11,G5A U72A,0.101
12,C63U G74A,0.546
13,G50U G74U,0.427
14,U37C G59U,1.25
15,U69C C85G,0.988
16,C14U C48G,1.08
17,U20G G68U,0.201
18,U60C G82C,0.269
19,U9C A16U,1.08
20,C18A U72G,0.19
21,G50A G59U,1.18

row,Variant,self-cleavage
1,G1U A56G,0.521
2,A70G A77C,0.178
3,C63U A70U,0.848
4,U37G U69C,0.128
5,C22U G50U,0.521
6,U23A C84U,0.762
7,G29C A71C,0.0536
8,A77U A78U,0.259
9,G17U G73C,0.145
10,A51C A71U,0.892
11,G25C G67U,0
12,G1A G35A,0.101
13,C7G C32G,0.115
14,C48U A51U,1.07
15,G55U U65G,0.847
16,C44G A70G,0.525
17,G38C G52C,0
18,C63U G82A,0.534
19,U20A C24G,0.0449
20,C22G U60A,0.141
21,C7G G81A,0.0594

row,Variant,self-cleavage
1,U12G G76C,1.2
2,G25U G50U,0.0361
3,G5U U23A,0.578
4,C4A C48G,0.148
5,A43G A77C,0.0723
6,C30U G54C,0.533
7,C58G U79A,0.571
8,C3G C22A,0.119
9,C24G G67A,0.119
10,U47C G82A,0.401
11,A71U A78U,0.185
12,U65A G67C,0.705
13,C21G C86A,0.0665
14,C4G A8G,0.346
15,A42G A45U,0.598
16,G67A G74U,0.534
17,C3G G28U,0.0357
18,U23G C44A,0.0791
19,C13A A70C,0.285
20,G40U C61A,0.632
21,C7A G80C,0.192

row,Variant,self-cleavage
1,G50U G52U,0.68
2,U46C G80C,0.399
3,G34C G68A,0.0692
4,C44A C61A,0.618
5,G29A A51U,0.277
6,U46A G80C,0.0831
7,G80A C86A,0.532
8,G6U C86G,0.467
9,A78U A83U,0.269
10,G17C G55C,0.262
11,C32A A70C,0.101
12,G11C C15A,0.0396
13,C3U A51G,0.577
14,G39U G52U,0.66
15,C49G A51U,0.554
16,G50U C66A,0.901
17,G25C G67A,0.123
18,U20G U27A,0.266
19,G40U A78U,0.191
20,C13U C86A,0.96
